Reference: the Immune Epitope Database (IEDB)

biological target: HLA-A*02:01; assay: IEDB peptide-MHC binding, purified MHC/competitive/fluorescence; ≥ and ≤ were set here for values at or beyond the usual limits of such assays; details: source organism: Homo sapiens

Sequence	IC50 [µM]
ALYLVCGER	≥ 90.2
HLCGSHLVEAL	0.44
HLVEALYLVCG	0.19
YLVCGERGFF	2.3
YLVCGERGFFY	8.59

Second part, the sequence after the results:

IC50 [µM]	Sequence
≥ 100	ALYLVCGERG
2.26	ALYLVCGERGF
3.73	GSHLVEALYLV
1.75	HLVEALYLVC
59.5	SHLVEALYL
